The labels stand for the following.
B1: scFv; the commonest letter at each place (parent)
chain 1: EVKLDETGGGLVQPGRPMKLSCVASGFTFSDYWMNWVRQSPEKGLEWVAQIRNKPYNYETYYSDSVKGRFTISRDDSKSSVYLQMNNLRVEDMGIYYCTGSYYGMDYWGQGTSVTVS
chain 2: DVVMTQTPLSLPVSLGDQASISCRSSQSLVHSNGNTYLRWYLQKPGQSPKVLIYKVSNRFSGVPDRFSGSGSGTDFTLKISRVEAEDLGVYFCSQSTHVPWTFGGGTKLEIK

The variants in the data set “fluorescein” derive from B1. The data set can be described thus: Kd (Tite-Seq). The following applies: with fluorescein; format: scFv 4-4-20, heavy + light.
Variants of B1 are the subject of data set [1]. Kind of data set: yeast surface expression (ratio to wild type); higher = more expressed. The settings on record: format: scFv 4-4-20, heavy + light.

Regarding chain 1 Y102D D106T, the Kd (as a rule, the equilibrium constant for the complex coming apart) with fluorescein was at least 10 µM. Further, in data set [1], the yeast surface expression turned out to be 1.12.

As to chain 1 G100Q Y107C, in the data set with fluorescein, the Kd is at least 10 µM. In data set [1], the yeast surface expression was 0.176.

On to chain 1 W33F W36L, for which the Kd with fluorescein is at least 10 µM. Further, the yeast surface expression in data set [1] is 0.594.

Take chain 1 F29G W33K: the Kd with fluorescein was at least 10 µM. The yeast surface expression in data set [1] came to 0.65.

For the variant chain 1 G100K, the Kd in the data set with fluorescein is at least 10 µM. Further, the yeast surface expression in data set [1] was found to be 0.395.

In the case of chain 1 G100Y, in the data set with fluorescein, the dissociation constant (Kd) is at least 10 µM. Moreover, in data set [1], the yeast surface expression is 0.606.

For chain 1 G100C, in the data set with fluorescein, the Kd is 0.00162 µM. The yeast surface expression in data set [1] was 0.893.

For the variant chain 1 G100R W108Y, the Kd with fluorescein was at least 10 µM. For the same variant, in data set [1], the yeast surface expression came to 0.478.

As to chain 1 Y102K M105Y, the Kd with fluorescein amounted to 0.0125 µM. Moreover, in data set [1], the yeast surface expression was found to be 0.955.

As to chain 1 F29Q S30G, the Kd with fluorescein worked out at 0.0391 µM. Besides, the yeast surface expression in data set [1] stood at 0.863.

In the case of chain 1 F29K W33R, in the data set with fluorescein, the Kd was determined as 0.0692 µM. Besides, the yeast surface expression in data set [1] was 0.639.

As to chain 1 G104L Y107E, the Kd with fluorescein is at least 10 µM. In addition, the yeast surface expression in data set [1] turned out to be 0.499.

In the case of chain 1 Y103W D106T, the Kd with fluorescein is at least 10 µM. Moreover, the yeast surface expression in data set [1] is 0.875.

Regarding chain 1 Y103W D106K, in the data set with fluorescein, the Kd was at least 10 µM. For the same variant, the yeast surface expression in data set [1] was determined as 0.245.

With chain 1 D31H N35G, the dissociation constant Kd with fluorescein came out at 0.00468 µM. In data set [1], the yeast surface expression is 0.736.

Regarding chain 1 Y102L D106E, the Kd with fluorescein stood at 3.04 µM. Moreover, the yeast surface expression in data set [1] was 1.26.

Turning to chain 1 T28S V37S, the dissociation constant (Kd) in the data set with fluorescein worked out at 0.00785 µM. Further, the yeast surface expression in data set [1] was determined as 0.757.

Take chain 1 D31S Y32W: the Kd with fluorescein is at least 10 µM. Also, the yeast surface expression in data set [1] turned out to be 0.83.

With chain 1 Y102P W108Y, the Kd with fluorescein was at least 10 µM. The yeast surface expression in data set [1] is 0.464.

Take chain 1 M105R G109T: in the data set with fluorescein, the Kd was at least 10 µM. Also, the yeast surface expression in data set [1] was determined as 0.344.

Turning to chain 1 Y107P, the Kd with fluorescein was at least 10 µM. Moreover, in data set [1], the yeast surface expression amounted to 0.414.

As to chain 1 D31I W33D, the Kd with fluorescein was at least 10 µM. Also, the yeast surface expression in data set [1] was 0.632.

Take chain 1 W36T V37D: the Kd with fluorescein is at least 10 µM. Also, the yeast surface expression in data set [1] was determined as 0.28.

As for chain 1 T28A F29K, in the data set with fluorescein, the Kd was at least 10 µM. Further, the yeast surface expression in data set [1] is 0.821.

For chain 1 F29N M34H, in the data set with fluorescein, the Kd was determined as 1.63 µM. Moreover, the yeast surface expression in data set [1] stood at 0.665.

chain 1 F29N S30D: the Kd in the data set with fluorescein is at least 10 µM. Besides, in data set [1], the yeast surface expression amounted to 0.949.

In the case of chain 1 M34H N35P, the Kd with fluorescein is at least 10 µM. In data set [1], the yeast surface expression came out at 2.76.

As for chain 1 T28I, the Kd with fluorescein came out at 0.000504 µM. Besides, the yeast surface expression in data set [1] was 1.07.

With chain 1 D31R Y32A, the Kd in the data set with fluorescein is 0.0944 µM. The yeast surface expression in data set [1] came to 0.863.

Take chain 1 S101L Y103I: the Kd with fluorescein was at least 10 µM. Also, in data set [1], the yeast surface expression was 0.229.

Consider chain 1 G104T G109L, for which, in the data set with fluorescein, the Kd was at least 10 µM. The yeast surface expression in data set [1] was found to be 0.241.

As for chain 1 G100R Y103V W108N, in the data set with fluorescein, the Kd was at least 10 µM. For the same variant, in data set [1], the yeast surface expression amounted to 0.274.

In the case of chain 1 Y107W W108T, the equilibrium dissociation constant (Kd) in the data set with fluorescein is at most 0.000316 µM. Moreover, in data set [1], the yeast surface expression worked out at 0.647.

Take chain 1 G100P D106M: the Kd with fluorescein was at least 10 µM. The yeast surface expression in data set [1] turned out to be 0.537.

For the variant chain 1 S101C Y107C, the Kd in the data set with fluorescein was at least 10 µM. Also, the yeast surface expression in data set [1] came to 0.493.

Turning to chain 1 F29H W33R, the Kd with fluorescein was at least 10 µM. The yeast surface expression in data set [1] worked out at 0.182.

Take chain 1 S101Q Y102D Y107P: in the data set with fluorescein, the Kd is at least 10 µM. The yeast surface expression in data set [1] is 0.361.

For the variant chain 1 D106Y, in the data set with fluorescein, the Kd is at least 10 µM. For the same variant, the yeast surface expression in data set [1] came to 0.51.

For chain 1 D106L, the Kd with fluorescein is at least 10 µM. In data set [1], the yeast surface expression was determined as 0.466.

As for chain 1 Y107I W108S, the equilibrium dissociation constant (Kd) with fluorescein is at least 10 µM. The yeast surface expression in data set [1] turned out to be 0.786.

In the case of chain 1 T28D M34G, the dissociation constant (Kd) in the data set with fluorescein worked out at 3.94 µM. For the same variant, the yeast surface expression in data set [1] is 0.865.

Take chain 1 Y102T Y103C: in the data set with fluorescein, the Kd amounted to 0.0245 µM. Moreover, the yeast surface expression in data set [1] is 0.784.

Take chain 1 D31L Y32M: the equilibrium dissociation constant (Kd) with fluorescein is at least 10 µM. Further, the yeast surface expression in data set [1] amounted to 0.772.

Take chain 1 G104Y: in the data set with fluorescein, the Kd is at least 10 µM. Further, the yeast surface expression in data set [1] worked out at 0.464.

Take chain 1 G104W: the Kd with fluorescein is at least 10 µM. In addition, the yeast surface expression in data set [1] came out at 0.587.

Take chain 1 G104S: the dissociation constant Kd with fluorescein was at least 10 µM. For the same variant, in data set [1], the yeast surface expression came to 0.799.

In the case of chain 1 S30F Y32H, the Kd with fluorescein came to 0.0507 µM. In addition, in data set [1], the yeast surface expression was 0.679.

chain 1 G100T Y102H D106M: the Kd with fluorescein was at least 10 µM. The yeast surface expression in data set [1] amounted to 1.02.

For the variant chain 1 S30F W36D, in the data set with fluorescein, the Kd is at least 10 µM. The yeast surface expression in data set [1] amounted to 0.448.

As for chain 1 Y32T V37G, the Kd with fluorescein was at least 10 µM. For the same variant, in data set [1], the yeast surface expression came to 1.64.

For the variant chain 1 G100W D106S W108L, in the data set with fluorescein, the Kd is at least 10 µM. Moreover, in data set [1], the yeast surface expression is 0.243.

chain 1 Y103L G109M: the Kd with fluorescein was at least 10 µM. Also, the yeast surface expression in data set [1] amounted to 0.208.

With chain 1 F29V N35D, in the data set with fluorescein, the Kd is at least 10 µM. In addition, the yeast surface expression in data set [1] turned out to be 0.862.

For the variant chain 1 Y102A M105F, the Kd with fluorescein was 0.00575 µM. The yeast surface expression in data set [1] is 0.979.

Turning to chain 1 G100P Y102W, the Kd with fluorescein was at least 10 µM. In addition, in data set [1], the yeast surface expression was determined as 0.682.

On to chain 1 M34D N35Q, for which the Kd with fluorescein was at least 10 µM. The yeast surface expression in data set [1] came to 1.78.

Take chain 1 F29G D31Y: the Kd with fluorescein is at least 10 µM. For the same variant, the yeast surface expression in data set [1] is 0.708.

Consider chain 1 Y32I M34F, for which, in the data set with fluorescein, the dissociation constant Kd is 5.66 µM. For the same variant, the yeast surface expression in data set [1] amounted to 0.871.
